To fix the notation:
B1: MutL^WT (Escherichia coli MutL protein, wild type) [Escherichia coli] / MutS [not stated] (parent)
chain 1: MPIQVLPPQLANQIAAGEVVERPASVVKELVENSLDAGATRIDIDIERGGAKLIRIRDNGCGIKKDELALALARHATSKIASLDDLEAIISLGFRGEALASISSVSRLTLTSRTAEQQEAWQAYAEGRDMNVTVKPAAHPVGTTLEVLDLFYNTPARRKFLRTEKTEFNHIDEIIRRIALARFDVTINLSHNGKIVRQYRAVPEGGQKERRLGAICGTAFLEQALAIEWQHGDLTLRGWVADPNHTTPALAEIQYCYVNGRMMRDRLINHAIRQACEDKLGADQQPAFVLYLEIDPHQVDVNVHPAKHEVRFHQSRLVHDFIYQGVLSVLQQQLETPLPLDDEPQPAPRSIPENRVAAGRNHFAEPAAREPVAPRYTPAPASGSRPAAPWPNAQPGYQKQQGEVYRQLLQTPAPMQKLKAPEPQEPALAANSQSFGRVLTIVHSDCALLERDGNISLLSLPVAERWLRQAQLTPGEAPVCAQPLLIPLRLKVSAEEKSALEKAQSALAELGIDFQSDAQHVTIRAVPLPLRQQNLQILIPELIGYLAKQSVFEPGNIAQWIARNLMSEHAQWSMAQAITLLADVERLCPQLVKTPPGGLLQSVDLHPAIKALKDE
chain 2: MSAIENFDAHTPMMQQYLRLKAQHPEILLFYRMGDFYELFYDDAKRASQLLDISLTKRGASAGEPIPMAGIPYHAVENYLAKLVNQGESVAICEQIGDPATSKGPVERKVVRIVTPGTISDEALLQERQDNLLAAIWQDSKGFGYATLDISSGRFRLSEPADRETMAAELQRTNPAELLYAEDFAEMSLIEGRRGLRRRPLWEFEIDTARQQLNLQFGTRDLVGFGVENAPRGLCAAGCLLQYAKDTQRTTLPHIRSITMEREQDSIIMDAATRRNLEITQNLAGGAENTLASVLDCTVTPMGSRMLKRWLHMPVRDTRVLLERQQTIGALQDFTAGLQPVLRQVGDLERILARLALRTARPRDLARMRHAFQQLPELRAQLETVDSAPVQALREKMGEFAELRDLLERAIIDTPPVLVRDGGVIASGYNEELDEWRALADGATDYLERLEVRERERTGLDTLKVGFNAVHGYYIQISRGQSHLAPINYMRRQTLKNAERYIIPELKEYEDKVLTSKGKALALEKQLYEELFDLLLPHLEALQQSASALAELDVLVNLAERAYTLNYTCPTFIDKPGIRITEGRHPVVEQVLNEPFIANPLNLSPQRRMLIITGPNMGGKSTYMRQTALIALMAYIGSYVPAQKVEIGPIDRIFTRVGAADDLASGRSTFMVEMTETANILHNATEYSLVLMDEIGRGTSTYDGLSLAWACAENLANKIKALTLFATHYFELTQLPEKMEGVANVHLDALEHGDTIAFMHSVQDGAASKSYGLAVAALAGVPKEVIKRARQKLRELESISPNAAATQVDGTQMSLLSVPEETSPAVEALENLDPDSLTPRQALEWIYRLKSLV

The variants in this test derive from B1. Nature of the test: BLI. Particulars: with MutS, 100 nM MutS, end-blocked DNA substrate with a single mismatch, read off a plot; for response: top green curve (taken as 150 nM MutL), peak at about 200 s, parent: 3.3.

In the case of chain 1 H270A, the response was 2.7 nm. Further, the koff (19 nM MutL, parent: 0.0053) was 0.0063 s⁻¹. For the same variant, for the setting “37 nM MutL, parent: 0.0032”, the koff is 0.0047 s⁻¹. Besides, the off-rate (koff) (75 nM MutL, parent: 0.0031) was determined as 0.0038 s⁻¹. Also, the koff (150 nM MutL, parent: 0.0033) was 0.0035 s⁻¹.

For the variant chain 1 H319A, the response came to 2.7 nm. For the same variant, the koff (19 nM MutL, parent: 0.0053) turned out to be 0.006 s⁻¹. The koff (37 nM MutL, parent: 0.0032) amounted to 0.0046 s⁻¹. The off-rate constant (koff) (75 nM MutL, parent: 0.0031) turned out to be 0.0036 s⁻¹. Besides, the koff (150 nM MutL, parent: 0.0033) was found to be 0.0038 s⁻¹.

With chain 1 H270A H319A, the response is 2.1 nm. Further, the koff (19 nM MutL, parent: 0.0053) came out at 0.0096 s⁻¹. In addition, the dissociation rate constant (koff) (37 nM MutL, parent: 0.0032) amounted to 0.0092 s⁻¹. Further, the koff (75 nM MutL, parent: 0.0031) amounted to 0.0082 s⁻¹. Moreover, the koff (150 nM MutL, parent: 0.0033) came to 0.0075 s⁻¹.

The koff is the rate constant with which the complex falls apart.
